Laboratory results taken from the DeepSol protein solubility set.

Experiment: soluble on expression in E. coli; label from the status in PepcDB or PDB records
With “MGSDKIHHHHHHMKIVYFVDGLNRGGVESVVCHLSSSFAKLRNKIYIICLHKDMNDLHLEIPEYISVFYLPFESNRNHHVNYIRYLPNLVDLLKKIKPDIVHAHNSSFSYFFLSIGILLSRTVPVNIRSIHFSGFFLEKRTIEDKIRFIFDWCACRLLKTIIISVGPTVSRVVKRLYTSNQHLTIVNGIDTKEKFCKRNLTKSCMGISEDKYVAVYVARICEGKNHDTLIKAWEIVTQYHPSALLLFIGDGPLKEQYQSVVHEKSLDDKITFTGSIPNIVEYLSIADVGVFPSESEGLPLVLMEMMAVELPVVASKIPSCCDLIEENVNGILYETYDYKDLANKILSVLCDNELKKKLGEQAKLLVCNHYSIENMINRHNILYQKLLLKQNFTDAYN” the “soluble on expression in E. coli” value was “not soluble”. For “MGSDKIHHHHHHMQEMILLQQKVDETIRALGGYFRPLSGLARLIEEVGEVGEALETGDELSFQAELVDVLMISTCLANQYVTDLAQQHQQLGTMEDEGQGSFYRLVHEAGQVARVMNGYEGDKPPKQTEDIIPIGMSLARLQRELFRLVRPHGINLLQEIDRTNEKNLNRDRKRFALTRDPVTEATIDHFRSATGNTERLWGAPAYESDLALEAHIQAALPSLRRFLRCARIEGIAGFVIEAPMERTDSLRSVKDQADEIGRIVKEQTPLSFKEAPYRIDVYAPQLGPVSPYHAEDDHRMFLVLHVDE”, the “soluble on expression in E. coli” value was “not soluble”. In the case of “MTELERHLLNALEQLQQDYMQRLNEWESAFVELQKMFSLTQRDNAMLNEQVMQLSQQVQHLSERTERLSQLYSENRRLEHHHHHH”, the “soluble on expression in E. coli” value is reported as “not soluble”. For “KGMTPPKTVNFKMKGVADAAFSHEFHLGMYKCNECHTKLFAYKAGAKRFTMADMDKGKSCGACHNGKDAFSSASDCGKCHPG”, the “soluble on expression in E. coli” value was “soluble”. For “MKKLLLTLVSSSLLVACSQRTESMEDKSIAPCGDKPNCISTLDEREEFTVKPFILTSSANMKAISHIASQLKGAKLVDINNDYARIECTSSVFRFVDDLELRIYGNTLIVRSESRTGYSDFGVNRKRVEKLRTLLEEKGLISQLEHHHHHH”, the “soluble on expression in E. coli” value was “not soluble”. In the case of “MSLDKPVIKISTENVDLIYRVGDNGRLYQSYLGKRLNHATDIAHLPQGSEAYLTHGMEDYFEPAIHIVHNDGNPSTLLKYVSHTRNQVSPGVDEVVITMQDDKYPVTVKLHYVAYQKENLIKTFTEISHREKKPVQLHKYASSMLHLNRANYFLTEFSGDWASEAHVKEQPLEFGKKTIDTKLGARANMFCSPFFQLALDGKSEENQGEVLVGTLGWTGNFSFVFEVDNKNELRVISGINPYASEYSLKPNEIFRTPDFYFTYSFKGKGQASRNFHDWARKYQVKDGNQTRMTLLNNWEATYFDFDEAKLVKLMDDAVELGVDMFLLDDGWFANKYPRSGDHQGLGDWDETADKLPHGIGYLTEAAKKKGIKFGIWIEPEMVNPKSELYEKHKDWVIHLPNRDEYYFRNQLVLDLSNPKVQDYVFGVVDNLMTKYPDIAFFKWDCNSPITNIYSVYLKDKQSHLYIDYVRGLYNVLERVKAKYPDLPMMLCSGGGGRSDYEALSYFTEFWPSDNTDPIERLFIQWGFSQVFPAKTMCAHVTTWNKNSSVKFRTDVAMMCKLGFDIKLADMSKDDETYCRTAVQNYNRLKPVVLEGDMYRLVSPYGSNHTSTMYVGKDKDKAVVFAFDIHPRYAEKILPVRLQGLDADKMYRVKEINLMPGANSEGHHHHHH”, the “soluble on expression in E. coli” value is reported as “not soluble”. For “MTKKIVLAGGTGFIGQYLQQRFEENGDEVVIISRRAPHVSWDDSEAVREALEGADMLVNLAGKSVNCRYNEQNKKAILQSRIDTTNILGEAVLACERPPKLWLNSSTATIYRHAEDRAMTEANGELGSGFSENVAKAWEEEFFSFQLPNTRQAALRISIVLGGDGGALTPYRYLTKFGLGGKQGSGKQMVSWIHVEDVFRVIRFIEEQEALEGVINCTSPQPVSNKVLTTAIRRAMNVKVGLPATAWMLEIGTFLLRTESELILKSRWVLPERLLQAGFTFQYETIDDALSEILVQSKSASHLLEHHHHHH”, the “soluble on expression in E. coli” value was “not soluble”. In the case of “MSLQKLAVFDFDSTLVNAETIESLARAWGVFDEVKTITLKAMNGETDFHKSLILRVSKLKNMPLKLAKEVCESLPLFEGALELVSALKEKNYKVVCFSGGFDLATNHYRDLLHLDAAFSNTLIVENDALNGLVTGHMMFSHSKGEMLLVLQRLLNISKTNTLVVGDGANDLSMFKHAHIKIAFNAKEVLKQHATHCINEPDLALIKPLIEGHHHHHH”, the “soluble on expression in E. coli” value is reported as “soluble”. With “MDDFATSSRVFEDDNDAFDFNPLEDFAFDDIDDDDDIVSGILDDGPYSIPNADNKPKFKSVSFDNAETPEERIETLFNQMPTQDDLLLGILDASQTPIFTDDLEQKVEELKQHHHSVYSPMSYCRLLERAGAIEQTNNEGLPLKEVEVEPDKVVVEGVEYWKVAAAPDVYWTATPAGLAHFQAYQPMELLRQMVQNEPQYEEIFRMVLSATAADGGESVKNIDDLVSDDPILQSPRRYAMYFIDKLERAGGIQWRGAWVAIQAGKDFLAELNA” the “soluble on expression in E. coli” value was “not soluble”. With “MGSDKIHHHHHHMVVNLEGKISKIGQNMKSSIIREILKFAADKDAISFGGGVPDPETFPRKELAEIAKEIIEKEYHYTLQYSTTEGDPVLKQQILKLLERMYGITGLDEDNLIFTVGSQQALDLIGKLFLDDESYCVLDDPAYLGAINAFRQYLANFVVVPLEDDGMDLNVLERKLSEFDKNGKIKQVKFIYVVSNFHNPAGVTTSLEKRKALVEIAEKYDLFIVEDDPYGALRYEGETVDPIFKIGGPERVVLLNTFSKVLAPGLRIGMVAGSKEFIRKIVQAKQSADLCSPAITHRLAARYLERYDLLEQLKPTIELYRRKRTVMLNALEEYFSDIPGVKWVKSEGGLFIWLTLPEGFDTWEMFEYAKRKKVFYVPGRVFKVYDEPSPSMRLSFCLPPDEKIVEGIKRLREVVLEYGKEKHLL” the “soluble on expression in E. coli” value was “soluble”. For “LYVGSLHFNITEDMLRGIFEPFGKIDNIVLMKDSDTGRSKGYGFITFSDSECARRALEQLNGFELAGRPMRVGHVTERLDGG”, the “soluble on expression in E. coli” value was “soluble”. In the case of “MGSDKIHHHHHHMENDILKYQKAYNTIVKLLKSNEKVLATMVFGSIVSGDLWEESDIDLFVIIDEEMANIKNIYMEQNDVPIHIKLMGKNKFVLLNENDIKGGFFHRIFASSKLVFSKDKDITEKYDSGRYYPDIDREKWNMVYISDLLKSLGLCKKYLNNKRIYTAYYFSVKCVEEFSKLYINHSGYMVNKDDVNMLTNINGDFKNYIDNLFFSKDNVEEAIKEVVDKIEEFINKNIKSITAILIDYMRDKDKSLSAEDINTDPVFNDFSINFEEILSKLWEFNIIKKGTRKYSIKDGKALCMENVYYL”, the “soluble on expression in E. coli” value is reported as “not soluble”. In the case of “ASLLARYPPEKLFQAERNFNAAQDLDVSLLEGDLVGVIKKKDPMGSQNRWLIDNGVTKGFVYSSFLKPYNPRRSHSDAS”, the “soluble on expression in E. coli” value is reported as “soluble”. For “MLRIAVDCMGGDYAPLEIVRGCILAAKELGYKIYLVGDKEQIIPILEKAKEHNNSLLEVVHAPDKVEMHEPPSNVLKKKNSSLYVAGMLVRKGEADGLVSAGNTGAVLAVGKFIVGAEEEVERPSIGVALPNPKGKTVLIDVGANVDCKPKHLVQFAVIGHTYAEEILGIKNPRVGILSIGEEEGKGNELVKETYPLLKATKLNFKGNAEGRDIYAGTFDVIVCDGFVGNVILKASESLGLAVVQMIKEEIKRSILAKLGALLLMPALNRFKKKADFAEYGGIPLLGAKKPVIITHGRANAKAIKNAVRVAGEFLNTDFNKKLVYNLKTLIPEGVKV”, the “soluble on expression in E. coli” value was “soluble”. With “MKCKVYTVVVPNVQSATLLPIIREKVKPDSIVYTDTFRSYDVLDVSEFSHFRINHSTHFAENHNYINGIGNFWNHAKRHLQKFNGIPKEHFELYLKECEWRFNNSEIKSQISILKQLVKGSLVLEHHHHHH” the “soluble on expression in E. coli” value was “not soluble”. In the case of “MKKWEKQTMKIAALGAMALTLAGCATAKSSSSQGNNPGKTIKIGVNMELSGSAAGYGEQQKQGIQLAVKKINKSGGIKVGGTKKKIQLVIRDNKTSNTTAASVAAQLVNNDKVVAVVGPATTSAGTAAIPNMTKAAVPSVSPSATDPDYTLQKSGKVQKYIFRACYQNNFQGATAATFVTKNLKAKRVAILTDNSSDYGTGLTKAFKKQYRGTVVSSQTFQEGDKDFNAILTALKHKKIDAIYAPGYYSEIGLIVKQARQAGIKAPIVGSDGMADAKLAQIAGKSNATNVYYTTPFSTKASATNKVASKFMSAYKAKYGSTAPTFSALAYDSVYMIKAAIEKEGSANSVKIADGLAKLKNFKGVTGTMTIDKQHNPEKTISIEQLTNGVVSKVYNVK”, the “soluble on expression in E. coli” value is reported as “soluble”. With “SALDTNYCFRNLEENCCVRPLYIDFRQDLGWKWVHEPKGYYANFCSGPCPYLRSADTTHSTVLGLYNTLNPEASASPCCVPQDLEPLTILYYVGRTPKVEQLSNMVVKSCKCS” the “soluble on expression in E. coli” value was “soluble”. With “AQIDLNITCRFAGVFHVEKNGRYSISRTEAADLCKAFNSTLPTMAQMEKALSIGFETCRYGFIEGHVVIPRIHPNSICAANNTGVYILTSNTSQYDTYCFNASAPPEEDCTSVTDLPNAFDGPITITIVNRDGTRYVQKGEYRTNPEDIYPSNPTDDDV” the “soluble on expression in E. coli” value was “soluble”. With “MNRGVIVTGGGHGIGKQICLDFLEAGDKVCFIDIDEKRSADFAKERPNLFYFHGDVADPLTLKKFVEYAMEKLQRIDVLVNNACRGSKGILSSLLYEEFDYILSVGLKAPYELSRLCRDELIKNKGRIINIASTRAFQSEPDSEAYASAKGGIVALTHALAMSLGPDVLVNCIAPGWINVTEQQEFTQEDCAAIPAGKVGTPKDISNMVLFLCQQDFITGETIIVDGGMSKRMIYHGDWNWFYKIDK” the “soluble on expression in E. coli” value was “soluble”. In the case of “MRSFPKAKEAFSEGEKVSFGVHRLHVGDAREVLASFPEASVHLVVTSPPYWTLKRYEDTPGQLGHIEDYEAFLDELDRVWREVFRLLVPGGRLVIVVGDVAVARRRFGRHLVFPLHADIQVRCRKLGFDNLNPIIWHKHTNASLEVEGRGVFLGKPYEPGAIIKTEIEYILMQRKPGGYRKPTQEQREKSRLPKEDFHRFFRQIWDDIPGESTKDHPAPFPLELAERLVRMFSFVGDVVLDPFAGTGTTLIAAARWGRRALGVELVPRYAQLAKERFAREVPGFSLEVLDGATHPRR”, the “soluble on expression in E. coli” value is reported as “soluble”. In the case of “MVAPETERIRTQIRVYLLVEDLQRQFAAYLGTPTRARGYPPYEGEHALIVEVSPALAIERVIDLALRAVPGVQPGILYVERQFGVLEIHSASLDEVRRAGEAILAGTGNRAEDQLRPRVLFHDIITDITDQHAVILNRNRQASMILPGQSLLVYEMTPALFAAVAANEAERVAPGLTVVDVQMIGAAGRLYIGGSTDEVTVARDHITTVLSAIEGQEH”, the “soluble on expression in E. coli” value is reported as “not soluble”. With “VSAPTKPHSPTFKPEPHSAANEPKHPAARPKHVALQQLTGAQAVIRSLEELGVDVIFGIPGGAVLPVYDPLFDSKKLRHVLVRHEQGAGHAASGYAHVTGRVGVCMATSGPGATNLVTPLADAQMDSIPVVAITGQVGRGLIGTDAFQEADISGITMPITKHNFLVRSGDDIPRVLAEAFHIAASGRPGAVLVDIPKDVLQGQCTFSWPPRMELPGYKPNTKPHSRQVREAAKLIAAARKPVLYVGGGVIRGEATEQLRELAELTGIPVVTTLMARGAFPDSHRQNLGMPGMHGTVAAVAALQRSDLLIALGTRFDDRVTGKLDSFAPEAKVIHADIDPAEIGKNRHADVPIVGDVKAVITELIAMLRHHHIPGTIEMADWWAYLNGVRKTYPLSYGPQSDGSLSPEYVIEKLGEIAGPDAVFVAGVGQHQMWAAQFIRYEKPRSWLNSGGLGTMGFAIPAAMGAKIALPGTEVWAIDGDGCFQMTNQELATCAVEGIPVKVALINNGNLGMVRQWQSLFYAERYSQTDLATHSHRIPDFVKLAEALGCVGLRCEREEDVVDVINQARAINDCPVVIDFIVGADAQVWPMVAAGTSNDEIQAARGIRPLFDDITEGHA” the “soluble on expression in E. coli” value was “not soluble”.
